# In patent US20150197559A1 (University of California, published 2015):
# T1: BoNT/B1 (Clostridium botulinum, UniProt P10844 2-1291)
# T1 sequence: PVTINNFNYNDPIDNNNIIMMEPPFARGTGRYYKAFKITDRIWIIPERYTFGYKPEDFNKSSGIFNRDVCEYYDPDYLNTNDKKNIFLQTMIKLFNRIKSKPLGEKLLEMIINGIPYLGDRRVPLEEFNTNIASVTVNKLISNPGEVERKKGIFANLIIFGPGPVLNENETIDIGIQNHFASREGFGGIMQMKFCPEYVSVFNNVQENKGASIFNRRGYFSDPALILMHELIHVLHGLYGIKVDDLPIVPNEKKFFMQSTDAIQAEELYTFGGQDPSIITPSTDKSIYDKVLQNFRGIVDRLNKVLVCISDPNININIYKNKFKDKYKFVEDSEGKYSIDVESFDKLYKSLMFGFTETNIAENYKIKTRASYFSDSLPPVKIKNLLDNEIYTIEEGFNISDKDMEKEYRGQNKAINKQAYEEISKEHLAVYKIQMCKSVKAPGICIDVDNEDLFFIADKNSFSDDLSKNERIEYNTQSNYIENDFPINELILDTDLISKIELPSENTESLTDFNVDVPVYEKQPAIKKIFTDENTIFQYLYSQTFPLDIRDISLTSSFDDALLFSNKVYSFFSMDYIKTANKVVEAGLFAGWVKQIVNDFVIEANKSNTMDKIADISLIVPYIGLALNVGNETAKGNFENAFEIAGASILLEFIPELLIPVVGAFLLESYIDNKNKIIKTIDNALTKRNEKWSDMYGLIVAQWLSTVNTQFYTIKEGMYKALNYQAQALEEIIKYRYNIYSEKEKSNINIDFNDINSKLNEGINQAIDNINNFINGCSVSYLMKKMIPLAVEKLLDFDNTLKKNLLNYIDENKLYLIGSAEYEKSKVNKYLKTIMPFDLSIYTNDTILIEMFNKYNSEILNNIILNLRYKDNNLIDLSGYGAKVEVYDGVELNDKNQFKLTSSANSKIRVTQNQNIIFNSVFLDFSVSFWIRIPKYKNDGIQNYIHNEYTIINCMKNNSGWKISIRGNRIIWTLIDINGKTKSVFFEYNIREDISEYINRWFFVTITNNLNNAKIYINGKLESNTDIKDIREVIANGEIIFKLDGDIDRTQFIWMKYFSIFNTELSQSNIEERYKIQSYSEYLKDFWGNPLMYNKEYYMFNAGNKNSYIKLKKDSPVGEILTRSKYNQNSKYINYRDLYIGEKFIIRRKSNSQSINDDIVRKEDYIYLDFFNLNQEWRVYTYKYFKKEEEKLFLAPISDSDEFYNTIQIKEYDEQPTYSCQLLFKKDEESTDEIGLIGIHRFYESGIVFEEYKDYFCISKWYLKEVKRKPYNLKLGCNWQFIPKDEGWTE
# Assays:
# BoNT/B1 [1] = target: T1, BoNT/B1; assay: flow cytometry, yeast-displayed scFv, soluble toxin
# BoNT/B1 [2] = target: T1, BoNT/B1; assay: KinExA flow fluorimetry, IgG in solution
# BoNT/B1 [3] = target: T1, BoNT/B1; assay: flow cytometry, yeast-displayed scFv, soluble toxin; remark: listed apart in the source
# BoNT/B1 [4] = target: T1, BoNT/B1; assay: as above; remark: listed apart in the source
# BoNT/B1 [5] = target: T1, BoNT/B1
# BoNT/B1 [6] = target: T1, BoNT/B1; assay: flow cytometry, yeast-displayed Fab, soluble toxin
# BoNT/B1 [7] = target: T1, BoNT/B1; assay: yeast-displayed Fab against parental B6 scFv, flow cytometry
binder,measurement,setting,value
2B24 scFv (scFv) scFv: QVQLVESGGGVVQPGRSLRLSCAASGLTFSVYGMHWVRQAPGKGLEWVAVISHTGSEEYYADSVKGRFSISRDNSNNTLFLQMNSLRPEDTAVYYCVKDGPMAAIPFYYFDFWGQGTLVTVSSGGGGSGGGGSGGGGSQSVVTQPPSVSAAPGQKVTISCSGSSSNIGNNYVSWYQQLPGTAPKLLIYDNNKRPSGIPDRFSGSKSGTSATLGITGLQTGDEADYYCGTWDSSLSAGVFGGGTKLTVL,Kd,BoNT/B1 [1],0.79 nM
"2B23 IgG (antibody, V domains shown) VH: EVQLLESGGGLVQPGGSLRLSCAASGFTFSNYPMSWVRQAPGKGLAWVSSLTASGDNTFYADSVKGRFTISRDNSNNTLYLQMHSLRAEDTAVYYCAKALVGRYDISTGYYRPVMDSWGQGTLVTVSS VL: DIQMTQSPPSLSASVGDRVTITCRTSQGFTSALAWYQQKPGEPPKLLIYDASKLESGVPSRFSGSGSGTNFALTISSLQPEDFATYFCQQSNSYPLTFGGGTKVEIKR",Kd,BoNT/B1 [2],0.0382 nM
2B25 scFv (scFv) scFv: QVQLQESGPGLVKPSQTLSLSCSVSGASITSGTFYWSWIRQHPGKDLEWIGYIYYSGTTYYNPSLKSRVTLSVDTSKNQFSLKVTSLTAADTAVYHCARGVPIYDSSGTYRGTYFDYWGQGTLVTVSSGGGGSGGGGSGGGGSQPGLTQPPSASGTPGQRVTISCSGSSSNVGSNTVNWYQQLPGTAPKLLIYRNDQRPSGVPDRFSGSKSGASASLAISGLRSEDEADYYCAAWDDSLNGLLFGGGTQLTVL,Kd,BoNT/B1 [1],0.95 nM
1B22 scFv (scFv) scFv: QVQLQESGSRLVKPSQTLSLTCGVSGGSISSSSYSWSWIRQTPGKGLEWIGYIYHSGSTYYNPSLKSRVTMSVDKSRNQFSLNMSSVTAADTAVYYCARTAFYYENTGPIRCYLDFWGQGTLVTVSSGGGGSGGGGSGGGGSDIQMTQSPSTLSASIGDRVTISCRASQSIQSWLAWYQQRPGEAPKLLIYSASTLQTGVPSRFSGSGSGTDFTLTISSLQPEDFATYYCQQYNSYPLTFGQGTKLEIK,Kd,BoNT/B1 [1],0.52 nM
same,Kd,BoNT/B1 [3],0.515 nM
1B10 scFv (scFv) scFv: QVQLVESGGGVVQPGRSLRLSCAASGFTFSHYGMHWVRQSPGKGLEWVAVIWYDGRNPYYAASVKGRFTISRDNDKNTLYLQMNSLRAEDTAVYYCVKDLTRFHDTTFGVFEMWGPGTTVTVSSGGGGSGGGGSGGGGSEIVLTQSPSSLSASVGDRITITCRASQSISSWLAWYQQKPGKAPMVLIYKASSLENGVPSRFSGSGSGTEFTLTISSLQPDDFATYYCQQYSTYSRTFGQGTKVEIK,Kd,BoNT/B1 [1],11.2 nM
2B23 scFv (scFv) scFv: EVQLLESGGGLVQPGGSLRLSCAASGFTFSNYPMSWVRQAPGKGLAWVSSLTASGDNTFYADSVKGRFTISRDNSNNTLYLQMHSLRAEDTAVYYCAKALVGRYDISTGYYRPVMDSWGQGTLVTVSSGGGGSGGGGSGGGGSDIQMTQSPPSLSASVGDRVTITCRTSQGFTSALAWYQQKPGEPPKLLIYDASKLESGVPSRFSGSGSGTNFALTISSLQPEDFATYFCQQSNSYPLTFGGGTKVEIK,Kd,BoNT/B1 [1],0.08 nM
same,Kd,BoNT/B1 [3],0.079 nM
2B30 scFv (scFv) scFv: EVQLVESGGGVVQPGRSLRLSCAASGFTFRRNAIHWVRQAPGKGLEWVAVISYDGVNKYYAASVKGRFAISRDNAKNTLFLQMNSLRPEDSAIYYCARDVSEYGDYVGHFDYWGQGTLVTVSSGGGGSGGGGSGGGGSSYELMQLPSASGTPGQRVSISCSGSSSNIGSNPVNWYQQLPGTAPKLLIYSNNHRPSGVPDRFSGSKSGTSASLAISGLQSEDEADYYCAAWDGSLNGHVVFGGGTKLTVL,Kd,BoNT/B1 [1],0.37 nM
"1B18 scFv (scFv, V domains shown) VH: EVQLVQSGGGLVQPGGSRRLSCAASGFYFNAYWMTWVRQAPGKGLEWVANINLDGTEIYYLDSVKGRFTVSRDNVKNSVFLQMSSLRVEDTAVYFCARLEWGGRNGWVSPWGQGTLVTVSS VL: DVVMTQSPSSVSASVGDRVTITCRASQSISSYLNWYQQRPGKAPKLLIFAASSLQSAVPSRFSGSGSGTDFTLTISSLQPEDFATYYCQQSYSTPPTFGQGTKVEIKR",Kd,BoNT/B1 [1],7.3 nM
same,Kd,BoNT/B1 [3],7.3 nM
"1B18 IgG (antibody, V domains shown) VH: EVQLVQSGGGLVQPGGSRRLSCAASGFYFNAYWMTWVRQAPGKGLEWVANINLDGTEIYYLDSVKGRFTVSRDNVKNSVFLQMSSLRVEDTAVYFCARLEWGGRNGWVSPWGQGTLVTVSS VL: DVVMTQSPSSVSASVGDRVTITCRASQSISSYLNWYQQRPGKAPKLLIFAASSLQSAVPSRFSGSGSGTDFTLTISSLQPEDFATYYCQQSYSTPPTFGQGTKVEIKR",Kd,BoNT/B1 [2],0.816 nM
B11E8 scFv (scFv) scFv: EVQLVQSGGGVVQPGRSLRLSCAASGFIFRTYGMHWVRQAPGKGLEWVAFVSSDGNNKFYSDSVKGRFTISRDNAKNTLYLQMNSLETEDTAMYYCAKDRYPIDCSGGSCFSYGMDVWGQGTTVTVSSGGGGSGGGGSGGGGSEIVLTQSPATLSVSPGERATLSCRASQSVSKFLAWYQQKRGQAPRLLIYGASTRATGIPARFSGSGSGTEFALTISSLQSEDFADYYCQQYDNWPITFGQGTRLEIK,Kd,BoNT/B1 [4],0.193 nM
4B6 scFv (scFv) scFv: QVQLVQSGAEVKKPGESLVISCKASGDKDTFTSFWIAWVRQMPGKGLEWMGIIYAGDSDTRYSPSFQGHVNISVDRSTNTAYLQWSSLKASDTAMYYCARHDSRYKYFYFGMDVWGQGTTVTVSSGGGGSGGGGSGGGGSDVVMTQSPSSLSASVGDRITITCQAGQDISNFLNWYQQKPGKAPKLLIRDASNLETGVPSRFSGGGSGTHFTFTISSLHPEDIATYFCQQYDNLPYTFGQGTKLEIK,Kd,BoNT/B1 [1],2.7 nM
"1B22 IgG (antibody, V domains shown) VH: QVQLQESGSRLVKPSQTLSLTCGVSGGSISSSSYSWSWIRQTPGKGLEWIGYIYHSGSTYYNPSLKSRVTMSVDKSRNQFSLNMSSVTAADTAVYYCARTAFYYENTGPIRCYLDFWGQGTLVTVSS VL: DIQMTQSPSTLSASIGDRVTISCRASQSIQSWLAWYQQRPGEAPKLLIYSASTLQTGVPSRFSGSGSGTDFTLTISSLQPEDFATYYCQQYNSYPLTFGQGTKLEIK","fold increase in affinity, IgG against parental scFv",BoNT/B1 [5],1.5 to 25 fold
same,Kd,BoNT/B1 [2],0.335 nM
4B7 scFv (scFv) scFv: QVQLQQSGPGLVKPSQTLSLTCSVSGGSINSDGSYWSWVRQHPGKGLEWIGYIYYSGTTYFNPSLKSRLTMSVDTSKNQFSLKMTSVTAADTAVYYCARMSGSRSYSQYYFDSWGQGTLVTVSSGGGGSGGGGSGGGGSDIQMTQSPSSLSASVGDRVTITCRASQSISSYLNWYQQKPGTAPKLLISDASTLQSGVPSRFSGSGSGTEFTLTISNLQPEDFATYYCQQFNSYVWTFGQGTKLEIK,Kd,BoNT/B1 [1],29.4 nM
"B6.C12 Fab (Fab, V domains shown) VH: QVQLVQSGAEVKKPGESLVISCKASGDKDTFTSFWIAWVRQMPGKGLEWMGIIYAGDSDTRYSPSFQGHVNISVDRSTNTAYLQWSSLKASDTAMYYCARHDSRYKYFYFGMDVWGQGTTVTVSS VL: DIVMTQSPSSLSASVGDRVTITCRASQSISSYLNWYQQKPGKAPKLLIYAASSLQSGVPSRFSGSGSGTDFTLTISSLQPEAFATYYCQQSYTAPCTFGQGTKLEIK",Kd,BoNT/B1 [6],0.405 nM
same,KD wild type/KD matured,BoNT/B1 [7],7 fold
"B6.D2 Fab (Fab, V domains shown) VH: QVQLVQSGAEVKKPGESLVISCKASGDKDTFTSFWIAWVRQMPGKGLEWMGIIYAGDSDTRYSPSFQGHVNISVDRSTNTAYLQWSSLKASDTAMYYCARHDSRYKYFYFGMDVWGQGTTVTVSS VL: DVVMTQSPCLPCLHLIGDRVTITCRASQSIRDYLSWYQQEPGKAPKLLIYSASSLQSGVPSRFSGSGSGTDFTLTITNLQPEDFATYYCLEKYSFPRCTFGQGTKLDIKR",Kd,BoNT/B1 [6],0.254 nM
same,KD wild type/KD matured,BoNT/B1 [7],11 fold
